Test results from publication PMC5864917 (2018).

T1: SERA5 SE36 (Plasmodium falciparum, UniProt Q9TY95)
T1 chain: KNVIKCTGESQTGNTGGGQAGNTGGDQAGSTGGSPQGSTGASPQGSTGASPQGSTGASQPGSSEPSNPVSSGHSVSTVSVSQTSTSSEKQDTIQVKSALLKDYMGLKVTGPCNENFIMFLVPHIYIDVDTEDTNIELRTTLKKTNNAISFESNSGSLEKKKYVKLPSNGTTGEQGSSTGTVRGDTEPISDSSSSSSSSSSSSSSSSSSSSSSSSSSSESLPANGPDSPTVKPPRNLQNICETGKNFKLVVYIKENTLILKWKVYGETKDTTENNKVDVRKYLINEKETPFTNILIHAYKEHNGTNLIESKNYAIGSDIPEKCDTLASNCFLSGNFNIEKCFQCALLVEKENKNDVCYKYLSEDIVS

B1: Vitronectin (protein)
chain: ATWLSLFSSEESNLGANNYDDYRMDWLVPATCEPIQSVFFFSGDKYYRVNLRTRRVDTVDPPYPRSIAQYWLGCPAPGHL

Columns and labels:
[1] = target: biotinylated SE36 (Plasmodium falciparum (Honduras-1)); assay: SPR; Biacore T200, chip SA; biotinylated SE36 immobilized at 200 RU via streptavidin; purified VTN 1.25-20 μg/mL (~17.9-285.7 nM) flowed at 20 μL/min, 25 °C, PBS with 0.05% Tween 20; fitted to 1:1 binding and bivalent analyte models
SERA5 SE36 = target: T1, SERA5 SE36; assay: SPR

| Molecule | KD1 (bivalent analyte model, first interaction) [1] | ka1 (bivalent analyte model, first interaction) [1] | kd1 (bivalent analyte model, first interaction) [1] | Kd (SERA5 SE36) |
| --- | --- | --- | --- | --- |
| Vitronectin (VTN), human (natural protein) | 3.7 nM | 550000 M⁻¹ s⁻¹ | 0.002 s⁻¹ |  |
| B1 |  |  |  | 3.7 nM |
